# Reference: patent publication US20170058297A1
# T1: Cre-B1
# T1 chain: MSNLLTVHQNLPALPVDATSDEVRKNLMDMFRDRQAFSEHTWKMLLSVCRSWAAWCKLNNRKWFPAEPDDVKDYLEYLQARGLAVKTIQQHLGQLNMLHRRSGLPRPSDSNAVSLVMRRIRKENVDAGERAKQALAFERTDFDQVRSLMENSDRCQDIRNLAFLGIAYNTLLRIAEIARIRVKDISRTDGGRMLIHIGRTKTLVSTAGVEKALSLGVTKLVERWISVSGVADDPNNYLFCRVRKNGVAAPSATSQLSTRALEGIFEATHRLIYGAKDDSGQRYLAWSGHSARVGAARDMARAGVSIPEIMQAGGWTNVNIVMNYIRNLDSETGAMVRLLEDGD
# B1: Cre-A1 (protein)
# chain: MSNLLTVHQNLPALPVDATSDEVRRNLMRMFELRRAFSEHTWKMLLSVCRSWAAWCKLNNRKWFPAEPEDVRDYLLYLQARGLAVKTIQQHLGQLNMLHRRSGLPRPSDSNAVSLVMRRIRKENVDAGERAKQALAFERTDFDQVRSLMENSDRCQDIRNLAFLGIAYNTLLRIAEIARIRVKDISRTDGGRMLIHIGRTKTLVSTAGVEKALSLGVTKLVERWISVSGVADDPNNYLFCRVRKNGVAAPSATSQLSTRALEGIFEATHRLIYGAKDDSGQRYLAWSGHSARVGAARDMARAGVSIPEIMQAGGWTNVNIVMNYIRNLDSETGAMVRLLEDGD
# Experiments:
# [1] = biological target: Cre-A1 (P1 Bacteriophage) (UniProt P06956); test: cell-based or functional assay
# [2] = biological target: Cre-B1 (P1 Bacteriophage) (UniProt P06956); test: cell-based or functional assay
# Cre-B1 = biological target: T1, Cre-B1
binder,measurement,setting,value
B1,"RFP positive cells of 7000 sorted, Ai14 mouse ES reporter cells, promoter hbb + cmv, replicate 1",[1],3850 cells
same,"RFP positive cells of 7000 sorted, Ai14 mouse ES reporter cells, promoter hbb + cmv, replicate 2",[1],3530 cells
same,"RFP positive cells of 7000 sorted, Ai14 mouse ES reporter cells, promoter hbb + cmv, replicate 3",[1],3690 cells
same,"RFP positive cells of 7000 sorted, Ai14 mouse ES reporter cells, promoter hbb + sp1, replicate 1",[1],3750 cells
same,"RFP positive cells of 7000 sorted, Ai14 mouse ES reporter cells, promoter hbb + sp1, replicate 2",[1],3420 cells
same,"RFP positive cells of 7000 sorted, Ai14 mouse ES reporter cells, promoter hbb + sp1, replicate 3",[1],3500 cells
same,"RFP positive cells of 7000 sorted, Ai14 mouse ES reporter cells, promoter hbb, replicate 1",[1],414 cells
same,"RFP positive cells of 7000 sorted, Ai14 mouse ES reporter cells, promoter hbb, replicate 2",[1],378 cells
same,"RFP positive cells of 7000 sorted, Ai14 mouse ES reporter cells, promoter hbb, replicate 3",[1],391 cells
same,"RFP positive cells of 7000 sorted, Ai14 mouse ES reporter cells, promoter hbb + cmv, replicate 1",[2],5870 cells
same,"RFP positive cells of 7000 sorted, Ai14 mouse ES reporter cells, promoter hbb + cmv, replicate 2",[2],6030 cells
same,"RFP positive cells of 7000 sorted, Ai14 mouse ES reporter cells, promoter hbb + cmv, replicate 3",[2],6360 cells
same,"RFP positive cells of 7000 sorted, Ai14 mouse ES reporter cells, promoter hbb + sp1, replicate 1",[2],5700 cells
same,"RFP positive cells of 7000 sorted, Ai14 mouse ES reporter cells, promoter hbb + sp1, replicate 2",[2],6120 cells
same,"RFP positive cells of 7000 sorted, Ai14 mouse ES reporter cells, promoter hbb + sp1, replicate 3",[2],5990 cells
same,"RFP positive cells of 7000 sorted, Ai14 mouse ES reporter cells, promoter hbb, replicate 1",[2],1120 cells
same,"RFP positive cells of 7000 sorted, Ai14 mouse ES reporter cells, promoter hbb, replicate 2",[2],1210 cells
same,"RFP positive cells of 7000 sorted, Ai14 mouse ES reporter cells, promoter hbb, replicate 3",[2],1320 cells
same,"recombinase activity in vitro (loxP excision, gel)",,one of the mutants (Cre-A1) was active individually
same,"recombinase activity in vitro (loxP excision, gel)",Cre-B1,the combined pair of redesigned mutants was active (Cre-A1+Cre-B1
